In assay [1] the target is T1, von Willebrand factor (vWF), purified human (human, UniProt P04275 764-2813).
T1 construct: Purified vWF in the flow cytometry and capillary adhesion assays; the vWF of the donor's plasma in the assays with platelet-rich plasma; also called purified vWF
Description: flow cytometry of CHO cells with purified VWF and ristocetin, anti-VWF monoclonal antibody. On the procedure:
Flow Cytometric Analysis of VWF Binding to GPIb-IX-expressing Cells—CHO cells expressing wild type (1b9) and mutant GPIb-IX were grown to confluence to synchronize cell growth. The cells were detached using 0.5 mM EDTA in PBS, pH 7.4. Seventy-five percent of the original volume was then replated in Dulbecco's modified Eagle's medium (DMEM) growth media and cultured for 18 h. For VWF binding assays, cells were detached using 0.5 mM EDTA-PBS, pH 7.4, resuspended to a concentration of 2.25×10⁶ cells/ml and incubated in modified Tyrode's buffer (2.5 mM Hepes, 12.1 mM NaHCO₃, 2.36 mM KCl, 0.136 M NaCl, 1 mM CaCl₂, 1 mM MgCl₂, 0.1% D-glucose, 1% BSA, pH 7.4) for 30 min at 4° C. […] After washing once with Tyrode's buffer, cells were further incubated with 10 μg/ml FITC-labeled SZ-29 (a monoclonal antibody against vWF) in the dark at 22° C. for 30 min and then analyzed by flow cytometry. […]
The cells were then analyzed by flow cytometry without washing. […]
To determine the roles of the above described two phosphoserine residues in regulating ligand binding function of GPIb-IX, CHO cell lines bearing wild type and the mutants of GPIb-IX were incubated with purified VWF in the presence of ristocetin (a VWF modulator that induces VWF binding to GPIb-IX). Binding of VWF was determined by flow cytometry using an anti-VWF monoclonal antibody. […]
For orientation: In flow cytometry, cells or beads pass a laser one at a time.

Assay [2] concerns the target maltose-binding protein (MBP), conjugated to control beads (UniProt P0AEX9 27-392 = MBP). As to the kind of experiment: bead pull-down from platelet lysate, anti-GPIbα immunoblot. How it is done: 14-3-3 binding to GPIb-IX. Binding of GPIb-IX to 14-3-3-conjugated beads were performed as previously described (Du et al., J. Biol. Chem., 271:7362-7367 (1996)). Briefly, 14-3-3-conjugated Sepharose 4B beads and maltose-binding protein (MBP)-conjugated control beads were preincubated with various concentrations of synthetic peptides at 4° C. for 1 h, and then with platelet lysates for an additional 1 h. The beads were washed three times. Bound GPIb-IX was detected by Western blot with a monoclonal antibody against GPIbα, WM23.
To examine if the above peptides interfere with 14-3-3 interaction with GPIb-IX, platelet lysates were incubated with beads conjugated with recombinant 14-3-3-maltose-binding protein (MBP) fusion protein in the absence or presence of MPαC or control peptides. GPIb-IX from platelet lysates specifically bound to 14-3-3 beads but not the control MBP-conjugated beads (FIG. 1B).
A general note: In western blotting, separated proteins are transferred to a membrane and probed.

B1: recombinant wild type GPIb-IX expressed in CHO cells (1b9) (receptor)
chain 1: HPICEVSKVASHLEVNCDKRNLTALPPDLPKDTTILHLSENLLYTFSLATLMPYTRLTQLNLDRCELTKLQVDGTLPVLGTLDLSHNQLQSLPLLGQTLPALTVLDVSFNRLTSLPLGALRGLGELQELYLKGNELKTLPPGLLTPTPKLEKLSLANNNLTELPAGLLNGLENLDTLLLQENSLYTIPKGFFGSHLLPFAFLHGNPWLCNCEILYFRRWLQDNAENVYVWKQGVDVKAMTSNVASVQCDNSDKFPVYKYPGKGCPTLGDEGDTDLYDYYPEEDTEGDKVRATRTVVKFPTKAHTTPWGLFYSWSTASLDSQMPSSLHPTQESTKEQTTFPPRWTPNFTLHMESITFSKTPKSTTEPTPSPTTSEPVPEPAPNMTTLEPTPSPTTPEPTSEPAPSPTTPEPTPIPTIATSPTILVSATSLITPKSTFLTTTKPVSLLESTKKTIPELDQPPKLRGVLQGHLESSRNDPFLHPDFCCLLPLGFYVLGLFWLLFASVVLILLLSWVGHVKPQALDSGQGAALTTATQTTHLELQRGRQVTVPRAWLLFLRGSLPTFRSSLFLWVRPNGRVGPLVAGRRPSALSQGRGQDLLSTVSIRYSGHSL
chain 2: CPAPCSCAGTLVDCGRRGLTWASLPTAFPVDTTELVLTGNNLTALPPGLLDALPALRTAHLGANPWRCDCRLVPLRAWLAGRPERAPYRDLRCVAPPALRGRLLPYLAEDELRAACAPGPLCWGALAAQLALLGLGLLHALLLVLLLCRLRRLRARARARAAARLSLTDPLVAERAGTDES
chain 3: TKDCPSPCTCRALETMGLWVDCRGHGLTALPALPARTRHLLLANNSLQSVPPGAFDHLPQLQTLDVTQNPWHCDCSLTYLRLWLEDRTPEALLQVRCASPSLAAHGPLGRLTGYQLGSCGWQLQASWVRPGVLWDVALVAVAALGLALLAGLLCATTEALD
modifications: Ser166 phosphorylated in CHO cells, as the filing says; phosphoserine 609, as the filing calls it
notes: whole, on cells; On intact CHO cells in flow cytometry and adhesion; in Triton X-100 lysate in the co-immunoprecipitation; No GPV
With B1, the binding result in assay [1] is given as “binds”.

B2: GPIb-IX with wild type GPIbβ and GPIX and GPIbα S609A, expressed in CHO cells (S609A) (receptor)
chain 1: HPICEVSKVASHLEVNCDKRNLTALPPDLPKDTTILHLSENLLYTFSLATLMPYTRLTQLNLDRCELTKLQVDGTLPVLGTLDLSHNQLQSLPLLGQTLPALTVLDVSFNRLTSLPLGALRGLGELQELYLKGNELKTLPPGLLTPTPKLEKLSLANNNLTELPAGLLNGLENLDTLLLQENSLYTIPKGFFGSHLLPFAFLHGNPWLCNCEILYFRRWLQDNAENVYVWKQGVDVKAMTSNVASVQCDNSDKFPVYKYPGKGCPTLGDEGDTDLYDYYPEEDTEGDKVRATRTVVKFPTKAHTTPWGLFYSWSTASLDSQMPSSLHPTQESTKEQTTFPPRWTPNFTLHMESITFSKTPKSTTEPTPSPTTSEPVPEPAPNMTTLEPTPSPTTPEPTSEPAPSPTTPEPTPIPTIATSPTILVSATSLITPKSTFLTTTKPVSLLESTKKTIPELDQPPKLRGVLQGHLESSRNDPFLHPDFCCLLPLGFYVLGLFWLLFASVVLILLLSWVGHVKPQALDSGQGAALTTATQTTHLELQRGRQVTVPRAWLLFLRGSLPTFRSSLFLWVRPNGRVGPLVAGRRPSALSQGRGQDLLSTVSIRYSGHAL
chain 2: CPAPCSCAGTLVDCGRRGLTWASLPTAFPVDTTELVLTGNNLTALPPGLLDALPALRTAHLGANPWRCDCRLVPLRAWLAGRPERAPYRDLRCVAPPALRGRLLPYLAEDELRAACAPGPLCWGALAAQLALLGLGLLHALLLVLLLCRLRRLRARARARAAARLSLTDPLVAERAGTDES
chain 3: TKDCPSPCTCRALETMGLWVDCRGHGLTALPALPARTRHLLLANNSLQSVPPGAFDHLPQLQTLDVTQNPWHCDCSLTYLRLWLEDRTPEALLQVRCASPSLAAHGPLGRLTGYQLGSCGWQLQASWVRPGVLWDVALVAVAALGLALLAGLLCATTEALD
notes: whole, on cells; also called S609A mutant
In the case of B2, the binding result in assay [1] is on record as “binds”.

B3: glycoprotein (GP) Ib-IX-V complex (GPIb-IX) of human platelets (receptor)
chain 1: HPICEVSKVASHLEVNCDKRNLTALPPDLPKDTTILHLSENLLYTFSLATLMPYTRLTQLNLDRCELTKLQVDGTLPVLGTLDLSHNQLQSLPLLGQTLPALTVLDVSFNRLTSLPLGALRGLGELQELYLKGNELKTLPPGLLTPTPKLEKLSLANNNLTELPAGLLNGLENLDTLLLQENSLYTIPKGFFGSHLLPFAFLHGNPWLCNCEILYFRRWLQDNAENVYVWKQGVDVKAMTSNVASVQCDNSDKFPVYKYPGKGCPTLGDEGDTDLYDYYPEEDTEGDKVRATRTVVKFPTKAHTTPWGLFYSWSTASLDSQMPSSLHPTQESTKEQTTFPPRWTPNFTLHMESITFSKTPKSTTEPTPSPTTSEPVPEPAPNMTTLEPTPSPTTPEPTSEPAPSPTTPEPTPIPTIATSPTILVSATSLITPKSTFLTTTKPVSLLESTKKTIPELDQPPKLRGVLQGHLESSRNDPFLHPDFCCLLPLGFYVLGLFWLLFASVVLILLLSWVGHVKPQALDSGQGAALTTATQTTHLELQRGRQVTVPRAWLLFLRGSLPTFRSSLFLWVRPNGRVGPLVAGRRPSALSQGRGQDLLSTVSIRYSGHSL
chain 2: CPAPCSCAGTLVDCGRRGLTWASLPTAFPVDTTELVLTGNNLTALPPGLLDALPALRTAHLGANPWRCDCRLVPLRAWLAGRPERAPYRDLRCVAPPALRGRLLPYLAEDELRAACAPGPLCWGALAAQLALLGLGLLHALLLVLLLCRLRRLRARARARAAARLSLTDPLVAERAGTDES
chain 3: TKDCPSPCTCRALETMGLWVDCRGHGLTALPALPARTRHLLLANNSLQSVPPGAFDHLPQLQTLDVTQNPWHCDCSLTYLRLWLEDRTPEALLQVRCASPSLAAHGPLGRLTGYQLGSCGWQLQASWVRPGVLWDVALVAVAALGLALLAGLLCATTEALD
chain 4: QPFPCPPACKCVFRDAAQCSGGDVARISALGLPTNLTHILLFGMGRGVLQSQSFSGMTVLQRLMISDSHISAVAPGTFSDLIKLKTLRLSRNKITHLPGALLDKMVLLEQLFLDHNALRGIDQNMFQKLVNLQELALNQNQLDFLPASLFTNLENLKLLDLSGNNLTHLPKGLLGAQAKLERLLLHSNRLVSLDSGLLNSLGALTELQFHRNHIRSIAPGAFDRLPNLSSLTLSRNHLAFLPSALFLHSHNLTLLTLFENPLAELPGVLFGEMGGLQELWLNRTQLRTLPAAAFRNLSRLRYLGVTLSPRLSALPQGAFQGLGELQVLALHSNGLTALPDGLLRGLGKLRQVSLRRNRLRALPRALFRNLSSLESVQLDHNQLETLPGDVFGALPRLTEVLLGHNSWRCDCGLGPFLGWLRQHLGLVGGEEPPRCAGPGAHAGLPLWALPGGDAECPGPRGPPPRPAADSSSEAPVHPALAPNSSEPWVWAQPVTTGKGQDHSPFWGFYFLLLAVQAMITVIIVFAMIKIGQLFRKLIRERALG
modifications: phosphoserine at Ser609 (the filing says Ser609 is constitutively phosphorylated in resting platelets)
notes: whole, on cells; Native complex of platelets from healthy donors; solubilised in platelet lysate in the 14-3-3 bead pull-down; also called glycoprotein Ib-IX; platelet VWF receptor
Consider B3, for which the binding result in assay [2] is on record as “no binding”.

(Values after patent US20090181057A1 (BOARD OF TRUSTEES OF THE UNIVERSITY OF ILLINOIS, published 2009).)
